Experiments:
Conditions in all cases: both partners purified
[1] = target: T1, α-synuclein amyloid fibrils (unlabeled) (UniProt P37840 1-140); experiment: microfluidic diffusional sizing; kinetics in free solution, 1 μM GFP-αB-c with 10 μM α-syn fibrils, 20 °C, PBS pH 7.2, 0.1 % NaN3; apparent constants, KD from koff/kon
[2] = target: T1, α-synuclein amyloid fibrils (unlabeled); experiment: microfluidic diffusional sizing; equilibrium titration, 1 to 100 μM α-syn fibrils with 1 μM αB-c, 25 °C, 3 d, PBS pH 7.2, 0.1 % NaN3; noncooperative single-site model, binding-site ratio 1:5.4 fixed; apparent
[3] = target: T1, α-synuclein amyloid fibrils (unlabeled); experiment: microfluidic diffusional sizing; dissociation of bound αB-c followed in a saturated α-syn fibril solution at 7 °C
[4] = target: T1, α-synuclein amyloid fibrils (unlabeled); experiment: microfluidic diffusional sizing; kinetics in free solution, 1 μM GFP-αB-c with 10 μM α-syn fibrils, 7 °C, PBS pH 7.2, 0.1 % NaN3; koff calculated from the association kinetics
[5] = target: T1, α-synuclein amyloid fibrils (unlabeled); experiment: microfluidic diffusional sizing; kinetics in free solution, 1 μM GFP-αB-c with 10 μM α-syn fibrils, 25 °C, PBS pH 7.2, 0.1 % NaN3; aliquots over 50 to 150 h; second-order rate equation; apparent constants, KD from koff/kon, per monomer equivalent of αB-c
[6] = target: T1, α-synuclein amyloid fibrils (unlabeled); experiment: microfluidic diffusional sizing; global analysis of the kinetics at 7, 10, 17, 20, 25, 30 and 37 °C: binding-site concentration fitted globally; nonlinear van't Hoff analysis of KD,app, reference temperature 310 K (37 °C value not used)

B1: GFP-labeled αB-crystallin (αB-c-TEV site-GFP-His tag) (natural protein)
chain: MDIAIHHPWIRRPFFPFHSPSRLFDQFFGEHLLESDLFPTSTSLSPFYLRPPSFLRAPSWFDTGLSEMRLEKDRFSVNLDVKHFSPEELKVKVLGDVIEVHGKHEERQDEHGFISREFHRKYRIPADVDPLTITSSLSSDGVLTVNGPRKQVSGPERTIPITREEKPAVTAAPKK
notes: αB-crystallin, small heat-shock protein; Arrangement as printed: αB-c-TEV site-GFP-His tag; a TEV site lies between αB-c and GFP; Present as a polydisperse ensemble of oligomers; concentrations are in monomer equivalents; also called αB-c-GFP; small heat-shock protein αB-crystallin; not shown: GFP, C-terminal, kept
With B1 the Kd [1] was 4.1 ± 1.7 µM, the Kd [2] was 0.261 ± 0.076 µM and the koff [3] was 5.6e-05 s⁻¹. It also gave a koff [4] of 2.6e-05 s⁻¹, a Kd [5] of 0.373 ± 0.238 µM and a koff [5] of 2.7e-06 s⁻¹. For the same binder, the kon [5] was 7.1 ± 2.6 M⁻¹ s⁻¹, the dH [6] was 443 ± 107 kJ⋅mol^−1 and the “stoichiometry N” value [6] was 5.4 α-syn equivalents per αB-c equivalent.
